Results on one substance are retold here after patent CN114605536A.

In the test the target is 天然TSLP. Put plainly: cell-based or functional assay.

Tezepelumab (antibody) had a 抑制天然TSLP诱导的SW756-STAT5-Luciferase报告基因细胞STAT5磷酸化活性的IC50 of 1.45 ng/mL.
